Experimental data taken from patent publication US20250289905A1 (MIRIMGENE, published 2025).

T1: human WARS1 recombinant protein (human, UniProt P23381 2-471, limits assumed)
T1 sequence: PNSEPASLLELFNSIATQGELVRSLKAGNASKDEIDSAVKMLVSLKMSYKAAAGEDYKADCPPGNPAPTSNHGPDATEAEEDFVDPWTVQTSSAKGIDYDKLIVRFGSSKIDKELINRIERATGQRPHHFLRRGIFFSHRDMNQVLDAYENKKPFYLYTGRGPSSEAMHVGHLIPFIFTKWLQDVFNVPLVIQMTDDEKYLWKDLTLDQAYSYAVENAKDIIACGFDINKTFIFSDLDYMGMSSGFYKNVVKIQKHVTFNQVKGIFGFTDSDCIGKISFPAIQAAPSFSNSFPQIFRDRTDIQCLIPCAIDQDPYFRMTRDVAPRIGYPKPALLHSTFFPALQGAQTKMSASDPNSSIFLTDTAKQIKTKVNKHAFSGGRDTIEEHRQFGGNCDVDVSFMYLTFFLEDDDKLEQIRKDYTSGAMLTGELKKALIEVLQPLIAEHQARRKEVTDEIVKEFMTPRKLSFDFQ

T2: rat-derived WARS1 recombinant protein (rat, UniProt Q6P7B0 1-481, limits assumed)
T2 construct: Recombinant, His-tagged (detected with anti-His tag antibody); construct not described; also called rat WARS1
T2 sequence (looked up): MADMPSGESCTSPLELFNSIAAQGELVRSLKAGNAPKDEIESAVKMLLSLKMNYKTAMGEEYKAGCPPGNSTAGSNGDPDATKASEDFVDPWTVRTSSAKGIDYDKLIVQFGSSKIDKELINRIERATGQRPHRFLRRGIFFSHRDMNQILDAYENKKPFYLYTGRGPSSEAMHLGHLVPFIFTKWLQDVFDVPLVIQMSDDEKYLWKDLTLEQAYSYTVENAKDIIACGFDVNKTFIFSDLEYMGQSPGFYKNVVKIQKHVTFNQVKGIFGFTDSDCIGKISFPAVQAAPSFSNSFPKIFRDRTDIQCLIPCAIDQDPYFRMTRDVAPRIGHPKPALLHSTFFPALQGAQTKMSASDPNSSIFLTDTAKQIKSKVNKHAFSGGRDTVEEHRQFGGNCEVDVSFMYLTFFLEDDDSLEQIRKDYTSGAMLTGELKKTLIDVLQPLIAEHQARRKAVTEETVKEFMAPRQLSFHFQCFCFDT

T3: mouse-derived WARS1 recombinant protein (mouse, UniProt P32921 1-481, limits assumed)
T3 construct: Recombinant, His-tagged (detected with anti-His tag antibody); construct not described; In the western blot also secreted WARS1 from J774A.1 supernatant and mouse serum; also called mouse WARS1
T3 sequence (looked up): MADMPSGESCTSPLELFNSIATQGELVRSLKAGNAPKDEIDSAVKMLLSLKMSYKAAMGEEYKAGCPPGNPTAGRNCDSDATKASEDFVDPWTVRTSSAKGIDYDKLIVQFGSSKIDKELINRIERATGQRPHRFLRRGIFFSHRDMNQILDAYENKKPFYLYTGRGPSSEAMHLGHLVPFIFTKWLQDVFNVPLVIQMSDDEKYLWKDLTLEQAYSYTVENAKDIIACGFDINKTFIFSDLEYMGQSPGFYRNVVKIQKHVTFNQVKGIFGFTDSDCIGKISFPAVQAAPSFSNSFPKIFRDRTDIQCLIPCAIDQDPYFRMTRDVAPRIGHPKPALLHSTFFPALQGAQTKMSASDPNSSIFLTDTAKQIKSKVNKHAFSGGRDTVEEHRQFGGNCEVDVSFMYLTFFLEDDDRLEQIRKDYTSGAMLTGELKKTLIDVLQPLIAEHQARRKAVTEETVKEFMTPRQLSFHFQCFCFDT


Key:
[1] = target: T1, human WARS1 recombinant protein; experiment: cell-based or functional assay
[2] = target: T2, rat-derived WARS1 recombinant protein; experiment: western blot; recombinant protein
Experimental: (§1) At this time, a WARS1 recombinant protein (human, mouse, pig, marmoset (NHP), or rat-derived), cell culture medium, and human or mouse serum were used as WARS1 protein samples. In particular, the cell culture medium was used by treating the human monocyte cell line, THP-1, or the mouse macrophage cell line, J774.1A, with LPS (lipopolysaccharide, 100 ng/ml) for 24 hours to induce an inflammatory response, and then the cell culture supernatant was obtained for use.
(§2) 30 μg of each of the WARS1 recombinant protein (human, mouse, pig, marmoset (NHP), or rat-derived), the cell supernatant obtained using the method above, and mouse or human serum was loaded onto 8% SDS-PAGE, then transferred to a PVDF membrane (Millipore). Afterwards, the membrane was reacted with 1 μg/ml of GKB101 or a variant antibody thereof for 1 hour each, then washed with TBST (TBS+Tween20) three times. Afterwards, it was reacted with a secondary antibody (anti-human IgG HRP, Millipore) for 1 hour, then washed with TBST three times to be treated with ECL (West® bright ECL, Advanta) to identify its protein expression (LAS-4000, Fujifilm).

[3] = target: T3, mouse-derived WARS1 recombinant protein; experiment: western blot; recombinant protein, J774A.1 culture supernatant, mouse serum
Experimental: as §1, §2

[4] = target: T1, human WARS1 recombinant protein; experiment: direct ELISA
Experimental: (§3) Specifically, for direct ELISA, a 96-well plate (Maxisorp, Thermo Fisher) was coated with WARS1 having a 1 μg/ml concentration of a recombinant protein derived from human, marmoset (NHP), mouse, rat, and pig, and then blocked with PBS containing 1% BSA at room temperature for 1 hour. The GKB101 antibody or a variant antibody thereof was diluted in a concentration-dependent manner, added to each coated well, reacted at room temperature for 1 hour, and then washed four times with PBST (PBS+Tween20). Each well was treated and reacted for 1 hour with an antibody (anti-Human IgG, cell signaling) to which HRP is attached, and then washed with PBST. Lastly, after developing with a TMB substrate (BD), its absorbance was measured at 490 nm (NIVO) (FIGS. 4a to 5).

[5] = target: T3, mouse-derived WARS1 recombinant protein; experiment: direct ELISA
Experimental: as §3

[6] = target: T2, rat-derived WARS1 recombinant protein; experiment: direct ELISA
Experimental: as §3

[7] = target: T1, human WARS1 recombinant protein; experiment: western blot; recombinant protein, THP-1 culture supernatant, human serum
Experimental: as §1, §2

secretion of TNF-α in mouse macrophage J774A.1 cells [1] | binding result [2] | binding result [3] | Kd [4] | Kd [5] | Kd [6] | binding result [7] | Binder
≥ 40% | binds | binds | – | – | – | – | GKB101 (antibody, V domains shown, Parent antibody; expressed in Expi293 cells; also called GKB101 antibody; anti-WARS1 antibody) VH: EVQLLESGGGLVQPGGSLRLSCAASGFTFSSYDMSWVRQAPGKGLEWVSAISSGGSSIYYADSVKGRFTISRDNSKNTLYLQMNSLRAEDTAVYYCARDVAWDMLGDFDYWGQGTLVTVSS VL: QSVLTQPPSASGTPGQRVTISCTGSSSNIGSNYVYWYQQLPGTAPKLLIYANSHRPSGVPDRFSGSKSGTSASLAISGLRSEDEADYYCGAWDDSLSAYVFGGGTKLTVLT
– | – | – | ~1 pM | ~1 pM | ~1 pM | – | SH/QL (antibody, V domains shown, L-CDR2 variant of GKB101; also called SH/QL antibody) VH: EVQLLESGGGLVQPGGSLRLSCAASGFTFSSYDMSWVRQAPGKGLEWVSAISSGGSSIYYADSVKGRFTISRDNSKNTLYLQMNSLRAEDTAVYYCARDVAWDMLGDFDYWGQGTLVTVSS VL: QSVLTQPPSASGTPGQRVTISCTGSSSNIGSNYVYWYQQLPGTAPKLLIYANQLRPSGVPDRFSGSKSGTSASLAISGLRSEDEADYYCGAWDDSLSAYVFGGGTKLTVLT
– | binds | binds | – | – | – | binds | S53T (antibody, V domains shown, L-CDR2 variant of GKB101; also called S53T antibody) VH: EVQLLESGGGLVQPGGSLRLSCAASGFTFSSYDMSWVRQAPGKGLEWVSAISSGGSSIYYADSVKGRFTISRDNSKNTLYLQMNSLRAEDTAVYYCARDVAWDMLGDFDYWGQGTLVTVSS VL: QSVLTQPPSASGTPGQRVTISCTGSSSNIGSNYVYWYQQLPGTAPKLLIYANTHRPSGVPDRFSGSKSGTSASLAISGLRSEDEADYYCGAWDDSLSAYVFGGGTKLTVLT
– | binds | binds | – | – | – | binds | SH/IL (antibody, V domains shown, L-CDR2 variant of GKB101; also called SH/IL antibody) VH: EVQLLESGGGLVQPGGSLRLSCAASGFTFSSYDMSWVRQAPGKGLEWVSAISSGGSSIYYADSVKGRFTISRDNSKNTLYLQMNSLRAEDTAVYYCARDVAWDMLGDFDYWGQGTLVTVSS VL: QSVLTQPPSASGTPGQRVTISCTGSSSNIGSNYVYWYQQLPGTAPKLLIYANILRPSGVPDRFSGSKSGTSASLAISGLRSEDEADYYCGAWDDSLSAYVFGGGTKLTVLT
– | – | binds | – | – | ~1 pM | binds | H54L (antibody, V domains shown, L-CDR2 variant of GKB101; also called H54L antibody) VH: EVQLLESGGGLVQPGGSLRLSCAASGFTFSSYDMSWVRQAPGKGLEWVSAISSGGSSIYYADSVKGRFTISRDNSKNTLYLQMNSLRAEDTAVYYCARDVAWDMLGDFDYWGQGTLVTVSS VL: QSVLTQPPSASGTPGQRVTISCTGSSSNIGSNYVYWYQQLPGTAPKLLIYANSLRPSGVPDRFSGSKSGTSASLAISGLRSEDEADYYCGAWDDSLSAYVFGGGTKLTVLT
– | binds | binds | – | – | – | binds | H54I (antibody, V domains shown, L-CDR2 variant of GKB101; also called H54I antibody) VH: EVQLLESGGGLVQPGGSLRLSCAASGFTFSSYDMSWVRQAPGKGLEWVSAISSGGSSIYYADSVKGRFTISRDNSKNTLYLQMNSLRAEDTAVYYCARDVAWDMLGDFDYWGQGTLVTVSS VL: QSVLTQPPSASGTPGQRVTISCTGSSSNIGSNYVYWYQQLPGTAPKLLIYANSIRPSGVPDRFSGSKSGTSASLAISGLRSEDEADYYCGAWDDSLSAYVFGGGTKLTVLT
≥ 40% | binds | binds | – | – | – | – | S53I (antibody, V domains shown, L-CDR2 variant of GKB101; also called S53I antibody) VH: EVQLLESGGGLVQPGGSLRLSCAASGFTFSSYDMSWVRQAPGKGLEWVSAISSGGSSIYYADSVKGRFTISRDNSKNTLYLQMNSLRAEDTAVYYCARDVAWDMLGDFDYWGQGTLVTVSS VL: QSVLTQPPSASGTPGQRVTISCTGSSSNIGSNYVYWYQQLPGTAPKLLIYANIHRPSGVPDRFSGSKSGTSASLAISGLRSEDEADYYCGAWDDSLSAYVFGGGTKLTVLT
– | binds | binds | – | – | – | binds | H54F (antibody, V domains shown, L-CDR2 variant of GKB101; also called H54F antibody) VH: EVQLLESGGGLVQPGGSLRLSCAASGFTFSSYDMSWVRQAPGKGLEWVSAISSGGSSIYYADSVKGRFTISRDNSKNTLYLQMNSLRAEDTAVYYCARDVAWDMLGDFDYWGQGTLVTVSS VL: QSVLTQPPSASGTPGQRVTISCTGSSSNIGSNYVYWYQQLPGTAPKLLIYANSFRPSGVPDRFSGSKSGTSASLAISGLRSEDEADYYCGAWDDSLSAYVFGGGTKLTVLT
– | binds | binds | – | – | – | binds | SH/LL (antibody, V domains shown, L-CDR2 variant of GKB101; also called SH/LL antibody) VH: EVQLLESGGGLVQPGGSLRLSCAASGFTFSSYDMSWVRQAPGKGLEWVSAISSGGSSIYYADSVKGRFTISRDNSKNTLYLQMNSLRAEDTAVYYCARDVAWDMLGDFDYWGQGTLVTVSS VL: QSVLTQPPSASGTPGQRVTISCTGSSSNIGSNYVYWYQQLPGTAPKLLIYANLLRPSGVPDRFSGSKSGTSASLAISGLRSEDEADYYCGAWDDSLSAYVFGGGTKLTVLT
